Measurements from article doi:10.1101/2023.11.29.569239.

Experiments:
MBP-DDX3Y full-length [1] = target: T1, MBP-DDX3Y full-length (UniProt O15523 1-660); assay: EMSA
MBP-DDX3X full-length [2] = target: T2, MBP-DDX3X full-length (UniProt O00571 1-662); assay: EMSA
MBP-ΔΔ DDX3X = MBP-ΔΔ DDX3X (UniProt O00571 132-607); assay: EMSA
MBP-ΔΔ DDX3Y = MBP-ΔΔ DDX3Y (UniProt O15523 130-605); assay: EMSA
MBP-DDX3Y full-length [3] = target: T1, MBP-DDX3Y full-length; assay: single-particle FRET
MBP-DDX3X full-length [4] = target: T2, MBP-DDX3X full-length; assay: single-particle FRET

T2 sequence (O00571 whole entry): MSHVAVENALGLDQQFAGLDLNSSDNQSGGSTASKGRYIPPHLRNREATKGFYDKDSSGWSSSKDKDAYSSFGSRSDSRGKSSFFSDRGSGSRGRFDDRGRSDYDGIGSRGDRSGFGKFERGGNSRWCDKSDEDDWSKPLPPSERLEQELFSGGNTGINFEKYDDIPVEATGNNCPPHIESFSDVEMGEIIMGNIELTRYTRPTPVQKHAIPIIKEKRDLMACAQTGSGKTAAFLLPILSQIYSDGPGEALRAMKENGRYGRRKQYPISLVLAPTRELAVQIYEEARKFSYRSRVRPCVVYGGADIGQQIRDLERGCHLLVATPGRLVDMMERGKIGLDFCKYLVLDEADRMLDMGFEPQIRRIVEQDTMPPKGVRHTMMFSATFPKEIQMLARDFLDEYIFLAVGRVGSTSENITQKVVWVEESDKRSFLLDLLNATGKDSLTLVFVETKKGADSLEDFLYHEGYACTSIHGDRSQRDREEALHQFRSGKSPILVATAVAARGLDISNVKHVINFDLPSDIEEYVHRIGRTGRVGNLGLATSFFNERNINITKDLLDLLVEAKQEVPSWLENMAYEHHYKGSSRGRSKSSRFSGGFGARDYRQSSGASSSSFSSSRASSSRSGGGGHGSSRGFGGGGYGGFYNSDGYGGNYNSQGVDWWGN
T1 sequence (O15523 whole entry): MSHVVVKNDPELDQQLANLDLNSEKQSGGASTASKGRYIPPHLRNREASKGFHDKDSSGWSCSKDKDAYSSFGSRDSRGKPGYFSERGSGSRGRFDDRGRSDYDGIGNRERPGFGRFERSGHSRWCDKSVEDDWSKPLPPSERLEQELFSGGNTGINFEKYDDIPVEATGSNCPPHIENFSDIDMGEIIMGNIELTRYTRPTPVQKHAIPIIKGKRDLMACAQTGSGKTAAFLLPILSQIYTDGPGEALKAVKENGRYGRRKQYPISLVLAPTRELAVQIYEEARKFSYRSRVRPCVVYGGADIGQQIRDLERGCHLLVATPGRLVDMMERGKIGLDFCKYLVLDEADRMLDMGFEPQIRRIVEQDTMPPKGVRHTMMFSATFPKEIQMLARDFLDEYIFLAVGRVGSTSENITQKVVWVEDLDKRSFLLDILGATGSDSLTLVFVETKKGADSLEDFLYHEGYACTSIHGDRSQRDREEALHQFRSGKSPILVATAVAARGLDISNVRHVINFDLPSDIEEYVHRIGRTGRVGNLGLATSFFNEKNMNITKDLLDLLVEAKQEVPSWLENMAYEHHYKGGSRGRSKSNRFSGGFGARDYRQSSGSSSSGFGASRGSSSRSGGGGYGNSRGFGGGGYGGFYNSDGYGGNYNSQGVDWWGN
Sequence of MBP-ΔΔ DDX3X (O00571 132-607, stated change not applied): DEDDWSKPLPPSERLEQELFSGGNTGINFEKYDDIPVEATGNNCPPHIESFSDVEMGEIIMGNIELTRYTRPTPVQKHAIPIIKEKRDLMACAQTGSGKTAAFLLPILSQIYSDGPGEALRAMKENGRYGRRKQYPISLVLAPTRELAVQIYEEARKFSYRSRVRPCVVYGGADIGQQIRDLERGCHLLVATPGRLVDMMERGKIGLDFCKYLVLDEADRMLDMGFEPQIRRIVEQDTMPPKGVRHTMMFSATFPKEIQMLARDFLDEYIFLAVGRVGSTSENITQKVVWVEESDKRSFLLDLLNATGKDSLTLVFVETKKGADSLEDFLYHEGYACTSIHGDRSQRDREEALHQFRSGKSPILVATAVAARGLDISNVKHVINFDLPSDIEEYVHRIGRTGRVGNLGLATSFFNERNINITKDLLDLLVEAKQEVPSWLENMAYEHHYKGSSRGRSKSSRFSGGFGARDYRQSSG
Sequence of MBP-ΔΔ DDX3Y (O15523 130-605, stated change not applied): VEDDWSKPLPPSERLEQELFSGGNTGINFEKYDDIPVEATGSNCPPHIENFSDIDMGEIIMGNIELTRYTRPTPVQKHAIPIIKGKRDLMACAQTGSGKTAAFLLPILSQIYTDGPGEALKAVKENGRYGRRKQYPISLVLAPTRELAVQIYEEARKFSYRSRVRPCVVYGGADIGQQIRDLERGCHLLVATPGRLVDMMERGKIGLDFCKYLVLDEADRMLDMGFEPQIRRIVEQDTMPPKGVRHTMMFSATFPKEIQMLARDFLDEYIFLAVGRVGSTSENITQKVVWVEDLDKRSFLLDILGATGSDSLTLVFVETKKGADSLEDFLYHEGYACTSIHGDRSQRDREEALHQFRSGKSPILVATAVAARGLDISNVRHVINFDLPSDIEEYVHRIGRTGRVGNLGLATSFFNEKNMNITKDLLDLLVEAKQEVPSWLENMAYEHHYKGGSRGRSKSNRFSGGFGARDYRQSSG

B1: dsRNA I (18-mer/42-mer) (dsRNA)
RNA 1: ACCGCUGCCGUCGCUCCG
RNA 2: UUUUUUUUUUUUUUUUUUUUUUUUCGGAGCGACGGCAGCGGU
- Kd (MBP-DDX3Y full-length [1]): 884 nM
- Kd (MBP-DDX3X full-length [2]): 519 nM
- binding signal (MBP-ΔΔ DDX3X): > 3 fold Kd increase vs full-length
- binding signal (MBP-ΔΔ DDX3Y): > 3 fold Kd increase vs full-length
- apparent K (half saturation) (MBP-DDX3Y full-length [3]): 3.7 ± 3 µM
- apparent K (half saturation) (MBP-DDX3X full-length [4]): 4.1 ± 2 µM
